Measurements reported in patent US20120058906A1 (published 2012).
Changes are numbered by the printed parent chain.

What was measured:
[1] = biological target: T1, Recombinant Human DLL4 (R&D Systems Cat#1506-D4/CF) (human, UniProt Q9NR61 27-524); experiment: ECL (MSD Multi-Spot) binding assay, antigen spotted on plate; Fab 30 nM; blank spot 213
T1 construct: Bought recombinant protein; also called delta-like protein 4; rHuman DLL4

[2] = biological target: T2, rHuman P-Cadherin/Fc Chimera, CF (R&D Systems Cat#861-PC) (human, UniProt P22223 108-654); experiment: as above
T2 construct: Bought Fc chimera; also called CDH3; Fc part of the bought chimera not given

[3] = biological target: T3, rHuman Notch-1/Fc Chimera, CF (R&D Systems Cat#3647-TK) (human, UniProt P46531 19-526); experiment: as above
T3 construct: Bought Fc chimera; Fc part of the bought chimera not given

[4] = biological target: T4, rHuman CD44/Fc Chimera, CF (R&D Systems Cat#3660-CD) (human, UniProt P16070 21-220); experiment: as above
T4 construct: Bought Fc chimera; Fc part of the bought chimera not given

[5] = biological target: T5, rHuman Erythropoietin R/Fc Chimera, CF (R&D Systems Cat#963-ER) (human, UniProt P19235 25-250); experiment: as above
T5 construct: Bought Fc chimera; also called EPO R/Fc; Epo R; Fc part of the bought chimera not given
T5 sequence: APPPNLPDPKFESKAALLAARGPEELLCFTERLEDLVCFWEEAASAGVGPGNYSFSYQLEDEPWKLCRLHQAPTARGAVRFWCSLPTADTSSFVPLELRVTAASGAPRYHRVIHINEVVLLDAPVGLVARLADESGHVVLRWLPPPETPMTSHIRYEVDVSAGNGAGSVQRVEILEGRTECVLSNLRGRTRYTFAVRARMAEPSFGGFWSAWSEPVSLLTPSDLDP

[6] = biological target: T6, rHuman HGF R/c-MET/Fc Chimera, CF (R&D Systems Cat#358-MT/CF) (human, UniProt P08581 25-932); experiment: MSD ECL multi-spot plate, antigen immobilized; Fab 1000 nM; blank spot 630
T6 construct: Purchased Fc chimera; also called HGF R/Fc; not shown: Fc portion of the purchased chimera

[7] = biological target: T7, rHuman IGF-1 sR (IGF-1 sR), CF (R&D Systems Cat#391-GR) (human, UniProt P08069 31-932); experiment: as above
T7 construct: Purchased soluble receptor; also called insulin-like growth factor-1 soluble receptor; IGF-R1

[8] = biological target: T8, rHuman Erythropoietin R/Fc Chimera, CF (R&D Systems Cat#963-ER) (human, UniProt P19235 25-250); experiment: as above
T8 construct: Purchased Fc chimera; also called EPO R/Fc; Epo R; not shown: Fc portion of the purchased chimera
T8 sequence: T5 sequence

[9] = biological target: T9, rHuman P-Cadherin/Fc Chimera, CF (R&D Systems Cat#861-PC) (human, UniProt P22223 108-654); experiment: as above
T9 construct: Purchased Fc chimera; not shown: Fc portion of the purchased chimera

[10] = biological target: T10, rHuman Notch-1/Fc Chimera, CF (R&D Systems Cat#3647-TK) (human, UniProt P46531 19-526); experiment: as above
T10 construct: Purchased Fc chimera; not shown: Fc portion of the purchased chimera

[11] = biological target: T11, rHuman EGF R/Fc Chimera, CF (R&D Systems Cat#344-ER) (human, UniProt P00533 25-645); experiment: as above
T11 construct: Purchased Fc chimera; not shown: Fc portion of the purchased chimera

[12] = biological target: T12, Recombinant Human DLL4 (R&D Systems Cat#1506-D4/CF) (human, UniProt Q9NR61 27-524); experiment: as above
T12 construct: Purchased recombinant protein; also called delta-like protein 4

[13] = biological target: T13, rHuman ErbB2/Fc Chimera, CF (R&D Systems Cat#1129-ER) (human, UniProt P04626 23-652); experiment: as above
T13 construct: Purchased Fc chimera; also called HER2/neu; not shown: Fc portion of the purchased chimera

[14] = biological target: T14, rHuman CD44/Fc Chimera, CF (R&D Systems Cat#3660-CD) (human, UniProt P16070 21-220); experiment: as above
T14 construct: Purchased Fc chimera; not shown: Fc portion of the purchased chimera

[15] = biological target: T7, rHuman IGF-1 sR (IGF-1 sR), CF (R&D …); experiment: MSD ECL multi-spot plate, antigen immobilized; Fab 1.6 nM; blank spot 449
[16] = biological target: T8, rHuman Erythropoietin R/Fc Chimera, CF …; experiment: as above
[17] = biological target: T10, rHuman Notch-1/Fc Chimera, CF (R&D …); experiment: as above
[18] = biological target: T12, Recombinant Human DLL4 (R&D Systems …); experiment: as above
[19] = biological target: T13, rHuman ErbB2/Fc Chimera, CF (R&D …); experiment: as above
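Note: blank spot per well as comparator with Hit at signal to blank ratio of 4 or more.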

B1: Fab VH6-1_IGHD3-3*01_IGHJ4*01 & V4-3_IGLJ4*01 (Fab, V domains shown)
VH: QVQLQQSGPGLVKPSQTLSLTCAISGDSVSSNSAAWNWIRQSPSRGLEWLGRTYYRSKWYNDYAVSVKSRITINPDTSKNQFSLQLNSVTPEDTAVYYCAREYYDFWSGYYTDYFDYWGQGTLVTVSS
VL: QPVLTQPTSLSASPGASARLTCTLRSGINLGSYRIFWYQQKPESPPRYLLSYYSDSSKHQGSGVPSRFSGSKDASSNAGILVISGLQSEDEADYYCMIWHSSASFVFGGGTQLIIL
notes: Tested as a Fab made in E. coli; also called IGHV6-1*01
In the case of B1, the ECL signal [1] is reported as 736, the ECL signal [2] is reported as 440 and the ECL signal [3] is reported as 425. It also gave an ECL signal [4] of 484 and an ECL signal [5] of 325.

B2: Fab VH5-51_IGHD5-18*01>3_IGHJ4*01_G100K & V3-4_IGLJ1*01 (Fab, V domains shown)
VH: EVQLVQSGAEVKKPGESLKISCKGSGYSFTSYWIGWVRQMPGKGLEWMGIIYPGDSDTRYSPSFQGQVTISADKSISTAYLQWSSLKASDTAMYYCARRKYSYGYDYFDYWGQGTLVTVSS
VL: QTVVTQEPSFSVSPGGTVTLTCGLSSGSVSTSYYPSWYQQTPGQAPRTLIYSTNTRSSGVPDRFSGSILGNKAALTITGAQADDESDYYCVLYMGSGISYVFGTGTKVTVL
notes: It was expressed as a Fab: CH1 with tags from Plasmid A and lambda CL from Plasmid E; also called Fab No. 22
B2 showed an ECL signal [6] of 1200 ECL signal, an ECL signal [7] of 1130 ECL signal and an ECL signal [8] of 1120 ECL signal. It also gave an ECL signal [9] of 1040 ECL signal, an ECL signal [10] of 1180 ECL signal and an ECL signal [11] of 1030 ECL signal. The ECL signal [12] was 29600 ECL signal, the ECL signal [13] was 1250 ECL signal and the ECL signal [14] was 1020 ECL signal.

B3: Fab VH5-51_IGHD5-18*01>3_IGHJ4*01_G100R & V3-4_IGLJ1*01 (Fab, V domains shown)
VH: B2 VH with K100R
VL: B2 VL
notes: It was expressed as a Fab: CH1 with tags from Plasmid A and lambda CL from Plasmid E; also called Fab No. 23
Binder B3 has an ECL signal [15] of 1330 ECL signal, an ECL signal [16] of 920 ECL signal and an ECL signal [17] of 1050 ECL signal. The ECL signal [18] was 1540 ECL signal and the ECL signal [19] was 1440 ECL signal.
